Data published in paper doi:10.1101/2022.07.13.499703.

Assays:
Assay in all cases: crystal structure
[1] = target: BKPyV VP1 E73Q variant pentamer (BK polyomavirus) (UniProt P03088)
[2] = target: BKPyV VP1 A72V-E73Q-E82Q triple mutant (VQQ) pentamer (BK polyomavirus) (UniProt P03088)
[3] = target: BKPyV VP1 K69N-E82Q double mutant (N-Q) pentamer (BK polyomavirus) (UniProt P03088)
[4] = target: BKPyV VP1 E73A variant pentamer (BK polyomavirus) (UniProt P03088)

“BKPyV VP1 E73Q variant pentamer (from UniProt P03088 30-300) (domain or fragment)” showed a stoichiometry N [1] of 5.

Work on “BKPyV VP1 A72V-E73Q-E82Q triple mutant (VQQ) pentamer (from UniProt P03088 30-300) (domain or fragment)” yielded a stoichiometry N [2] of 5.

Substance “BKPyV VP1 K69N-E82Q double mutant (N-Q) pentamer (from UniProt P03088 30-300) (domain or fragment)” has a stoichiometry N [3] of 5.

With “BKPyV VP1 E73A variant pentamer (from UniProt P03088 30-300) (domain or fragment)” the stoichiometry N [4] was 5.
